Patent US20200115460A1 (TEIJIN PHARMA, published 2020)

Columns and labels:
[1] = molecular target: T1, recombinant human IGF-I receptor His tag (305-GR-050, R&D SYSTEMS) (human, UniProt P08069 31-932, limits assumed); assay: SPR, Biacore T200, 36 °C, IGF-IR-His captured by anti-His antibody, 1:1 model
T1 construct: Bought protein, captured on an anti-His antibody chip; also called IGF-IR-His; not shown: His tag
Protocol: An anti-His monoclonal antibody was immobilized to a sensor chip CM3 (GE) with an Amine Coupling Kit (BR-1000-50, GE) and a His Capture Kit (28-9950-56, GE). The immobilization conditions were NHS/EDC: 7 minutes, 50 μg/mL anti-His monoclonal antibody: 3 minutes, ethanolamine: 7 minutes, and target: ≥3000 RU. As analytes, the agent was used at predetermined concentrations.
(§1) The sensor chip CM3 immobilized with the anti-His monoclonal antibody was set to Biacore T200, the reaction temperature was set to 36° C., and a running buffer (HBS-EP+, BR-1006-69, GE) was fed at a flow rate 30 μL/min. The amount of the binding ligand was set to about 100 RU, and IGF-IR-His (0.5 to 2×10⁻⁸ mol/L) was added to the sensor chip to be captured by the anti-His monoclonal antibody. Ctrl IgG2a (10 nmol/L) was allowed to react for 1 minute, and HBS-EP+ was fed at a flow rate of 30 μL/min for at least 10 minutes. The analyte and HBS-EP+ were added to flow cells (1 and 2) and flow cells (3 and 4), respectively.
(§2) The reaction conditions were set to a binding time of 600 seconds and a dissociation time of 600 seconds. After completion of the reaction, washing was performed with regeneration buffer 1 (0.2% SDS), regeneration buffer 2 (100 mmol/L Tris-HCl (pH 8.5), 1 mol/L NaCl, 15 mmol/L MgCl₂), and regeneration buffer 3 (10 mmol/L glycine-HCl (pH 1.5)) for 1 minute each at a flow rate of 30 μL/min.

[2] = molecular target: T1, recombinant human IGF-I receptor His …; assay: SPR, Biacore T200
Protocol: as §1, §2

[3] = molecular target: T2, human insulin receptor (human, UniProt P06213 28-1382); assay: Cell ELISA, fixed HEK 293T cells expressing the receptor
T2 construct: whole, on cells; Expressed on transfected HEK 293T cells; also called INSR; hINSR
Protocol: The HEK 293T cells after the lipofection were added to a 96-well plate (coated with poly-D-lysine) at a concentration of 0.8×10⁵ cells/well (about 180 μL/well) and were immobilized with 10% buffered formalin (Mildform® 10 NM, Wako), followed by blocking with phosphate buffer containing 3% BSA. The plate was used in ELISA.
In ELISA, antibody solutions (30 μL) adjusted to predetermined concentrations with 0.1% skimmed milk/3% BSA/PBS were added to respective wells and were subjected to reaction at room temperature for about 1 hour. After washing with a washing liquid (tris buffer containing Tween) twice, anti-mouse-IgG antibody-ALP conjugate solutions (30 μL) adjusted to predetermined concentrations with 0.1% skimmed milk/3% BSA/PBS were added to respective wells and were subjected to reaction at room temperature for about 1 hour. After washing with a washing liquid twice, 100 μL of a substrate (PNPP) was added to each well to start the reaction.

[4] = molecular target: guinea pig IGF-I receptor (guinea pig, UniProt P08069 31-1367 (human entry)); assay: cell-based or functional assay
[5] = molecular target: human IGF-I receptor (human, UniProt P08069 31-1367); assay: cell-based or functional assay
[6] = molecular target: T3, Substitution 3 of the CR domain (human IGF-I receptor G315S/S316T, FLAG tag) (human, UniProt P08069 31-1367); assay: Cell ELISA on HEK 293T cells expressing the substitution
T3 construct: Expressed on transfected HEK 293T cells
Protocol: HEK 293T cells were seeded in a 10-cm dish coated with poly-D-lysine at 9×10⁶ cells/well. On the next day, each plasmid DNA was transfected into the cells by lipofection. On the following day, the HEK 293T cells were detached with 0.25% trypsin/EDTA and were suspended in a broth. The HEK 293T cells were added to a 96-well plate (coated with poly-D-lysine) at a concentration of 0.8×10⁵ cells/well and were incubated at 37° C. under conditions of 5% CO₂ overnight. The medium was removed from the 96-well plate, and the cells were immobilized with a 10% buffered formalin (Mildform® 10 NM, Wako). The 10% buffered formalin was replaced with a blocking buffer (3% BSA/PBS/sodium azide), and the plate was used in ELISA.
After washing with a washing liquid twice, anti-mouse-IgG antibody-HRP conjugate solutions (50 μL) adjusted to predetermined concentrations with 0.1% skimmed milk/3% BSA/PBS were added to respective wells and were subjected to reaction at room temperature for about 1 hour. After washing with a washing liquid twice, 100 μL of a substrate (TMB) was added to each well to start the reaction. After about 30 minutes, 100 μL of 0.5 M sulfuric acid was added to each well to stop the reaction, and the absorbances at 450 nm was measured. The value of the absorbance at 450 nm was evaluated as the avidity.

Kd [1]: < 10 pM
koff [1]: < 1e-05 s⁻¹
kon [1]: 1.05e+06 M⁻¹ s⁻¹
KD relative to that of IGF-I [2]: < 0.02 fold of IGF-I
ka relative to that of IGF-I [2]: ~0.2 fold of IGF-I
kd relative to that of IGF-I [2]: < 0.001 fold of IGF-I
avidity (absorbance difference 405-550 nm, Mock cells = 1) at 0.5 nM [3]: 1.1 fold of Mock cells
avidity (absorbance difference 405-550 nm, Mock cells = 1) at 5 nM [3]: 1.4 fold of Mock cells
EC50 of the myoblast proliferative activity, guinea pig myoblasts [4]: 4 pM
EC50 of the myoblast proliferative activity, human myoblasts [5]: 4 pM
binding result [6]: no binding (tested: 1 nM)
B1: IGF11-16 (antibody, mouse IgG1, kappa, V domains shown)
VH: QIQLQQPGAELVKPGASVKLSCKAPGYTFTSYWMHWVKQRPGQGLEWIGETNPSNSVTNYNEKFKSKATLTVDKSSSTAYMQLSSLTSEDSAVYYCTIGRGRGFAYWGQGTLVTVSA
VL: DIQMNQSPSSLSASLGDTITITCRASQNINFWLSWCQQKPGNIPKLLIYKASNLHTGVPSRFSGSGSGTDFTLTISSLQPEDIATYYCLQGQSYPYTFGGGTKLEIKR
notes: no cleavage site is stated; also called IGF-I receptor agonist antibody; IGF11-16 antibody
